Laboratory results: IntAct's records for PubMed 16525023

B1: 1-phosphatidylinositol 4,5-bisphosphate phosphodiesterase gamma-1 (Homo sapiens), P19174 (parent)
chain: MAGAASPCANGCGPGAPSDAEVLHLCRSLEVGTVMTLFYSKKSQRPERKTFQVKLETRQITWSRGADKIEGAIDIREIKEIRPGKTSRDFDRYQEDPAFRPDQSHCFVILYGMEFRLKTLSLQATSEDEVNMWIKGLTWLMEDTLQAPTPLQIERWLRKQFYSVDRNREDRISAKDLKNMLSQVNYRVPNMRFLRERLTDLEQRSGDITYGQFAQLYRSLMYSAQKTMDLPFLEASTLRAGERPELCRVSLPEFQQFLLDYQGELWAVDRLQVQEFMLSFLRDPLREIEEPYFFLDEFVTFLFSKENSVWNSQLDAVCPDTMNNPLSHYWISSSHNTYLTGDQFSSESSLEAYARCLRMGCRCIELDCWDGPDGMPVIYHGHTLTTKIKFSDVLHTIKEHAFVASEYPVILSIEDHCSIAQQRNMAQYFKKVLGDTLLTKPVEISADGLPSPNQLKRKILIKHKKLAEGSAYEEVPTSMMYSENDISNSIKNGILYLEDPVNHEWYPHYFVLTSSKIYYSEETSSDQGNEDEEEPKEVSSSTELHSNEKWFHGKLGAGRDGRHIAERLLTEYCIETGAPDGSFLVRESETFVGDYTLSFWRNGKVQHCRIHSRQDAGTPKFFLTDNLVFDSLYDLITHYQQVPLRCNEFEMRLSEPVPQTNAHESKEWYHASLTRAQAEHMLMRVPRDGAFLVRKRNEPNSYAISFRAEGKIKHCRVQQEGQTVMLGNSEFDSLVDLISYYEKHPLYRKMKLRYPINEEALEKIGTAEPDYGALYEGRNPGFYVEANPMPTFKCAVKALFDYKAQREDELTFIKSAIIQNVEKQEGGWWRGDYGGKKQLWFPSNYVEEMVNPVALEPEREHLDENSPLGDLLRGVLDVPACQIAIRPEGKNNRLFVFSISMASVAHWSLDVAADSQEELQDWVKKIREVAQTADARLTEGKIMERRKKIALELSELVVYCRPVPFDEEKIGTERACYRDMSSFPETKAEKYVNKAKGKKFLQYNRLQLSRIYPKGQRLDSSNYDPLPMWICGSQLVALNFQTPDKPMQMNQALFMTGRHCGYVLQPSTMRDEAFDPFDKSSLRGLEPCAISIEVLGARHLPKNGRGIVCPFVEIEVAGAEYDSTKQKTEFVVDNGLNPVWPAKPFHFQISNPEFAFLRFVVYEEDMFSDQNFLAQATFPVKGLKTGYRAVPLKNNYSEDLELASLLIKIDIFPAKENGDLSPFSGTSLRERGSDASGQLFHGRAREGSFESRYQQPFEDFRISQEHLADHFDSRERRAPRRTRVNGDNRL

Variants of: B1
Conditions: with akt1_human AKT1, P31749
Sequence of akt1_human AKT1, P31749 (P31749 whole entry): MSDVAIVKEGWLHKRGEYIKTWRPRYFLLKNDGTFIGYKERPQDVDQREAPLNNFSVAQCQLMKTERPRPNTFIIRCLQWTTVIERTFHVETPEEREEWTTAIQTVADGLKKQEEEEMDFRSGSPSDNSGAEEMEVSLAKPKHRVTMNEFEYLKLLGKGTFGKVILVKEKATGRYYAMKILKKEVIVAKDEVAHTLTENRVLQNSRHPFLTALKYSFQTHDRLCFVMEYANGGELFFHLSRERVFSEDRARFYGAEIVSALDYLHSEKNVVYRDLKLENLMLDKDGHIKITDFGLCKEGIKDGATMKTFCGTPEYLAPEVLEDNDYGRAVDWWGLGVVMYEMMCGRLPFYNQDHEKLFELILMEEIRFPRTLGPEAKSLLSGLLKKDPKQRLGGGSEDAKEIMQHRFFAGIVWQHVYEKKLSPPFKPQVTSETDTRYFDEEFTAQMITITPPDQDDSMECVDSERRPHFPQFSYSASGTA

Variant | effect of a mutation on the interaction
Y783F | disrupting interaction
Y771F | decreasing interaction
